Test results reported in publication PMC7797058, “Characterization of the first tetrameric transcription factor of the GntR superfamily with allosteric regulation from the bacterial pathogen Agrobacterium fabrum” (Nucleic Acids Research, 2020).

What was measured:
Atu1419 [1] = target: T1, Atu1419 (Agrobacterium fabrum, UniProt A9CJ36); assay: isothermal titration calorimetry; type: binding
T1 construct: theoretical monomer mass ~26542 Da; homotetramer; co-purified Zn2+
T1 sequence (A9CJ36 1-244): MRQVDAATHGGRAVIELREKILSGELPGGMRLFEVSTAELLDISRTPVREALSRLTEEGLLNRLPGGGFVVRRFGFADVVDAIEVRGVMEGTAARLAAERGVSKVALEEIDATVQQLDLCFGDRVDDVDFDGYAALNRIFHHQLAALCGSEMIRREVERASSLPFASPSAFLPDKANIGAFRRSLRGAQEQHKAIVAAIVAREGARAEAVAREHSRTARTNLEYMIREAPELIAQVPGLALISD

Atu1419 [2] = target: T1, Atu1419; assay: differential scanning calorimetry; type: binding; settings: 10 µM protein, 100 µM MEF, 1 K/min; absolute Tm with ligand, apo reference Tm 52.6 °C
[3] = target: T2, Atu1419 (Agrobacterium fabrum C58) (UniProt A9CJ36); assay: EMSA; settings: EMSA: 50 mM Tris-HCl pH 8, 150 mM NaCl, 30 nM DNA, 30 min at room temperature; gel 6% or 12% PAGE in TBE at 4 C
T2 sequence: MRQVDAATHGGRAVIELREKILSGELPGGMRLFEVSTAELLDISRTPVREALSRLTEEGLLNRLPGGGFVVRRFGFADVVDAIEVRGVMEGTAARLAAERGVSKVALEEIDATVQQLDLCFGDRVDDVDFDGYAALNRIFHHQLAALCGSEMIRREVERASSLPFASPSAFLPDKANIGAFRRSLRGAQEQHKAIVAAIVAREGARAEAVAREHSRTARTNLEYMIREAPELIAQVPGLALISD

Atu1419 [4] = target: T3, Atu1419 (Agrobacterium fabrum C58, UniProt A9CJ36 1-244); assay: X-ray crystallography; Zn2+, citrate (orientation B); EMSA: 50 mM Tris-HCl pH 8, 150 mM NaCl, 30 nM DNA, 30 min at room temperature; gel 6% or 12% PAGE in TBE at 4 C; settings: protein: recombinant; tags: C-terminal 6xHis; chain copies: 4; blunt; self-complementary, 2 strand copies
T3 sequence: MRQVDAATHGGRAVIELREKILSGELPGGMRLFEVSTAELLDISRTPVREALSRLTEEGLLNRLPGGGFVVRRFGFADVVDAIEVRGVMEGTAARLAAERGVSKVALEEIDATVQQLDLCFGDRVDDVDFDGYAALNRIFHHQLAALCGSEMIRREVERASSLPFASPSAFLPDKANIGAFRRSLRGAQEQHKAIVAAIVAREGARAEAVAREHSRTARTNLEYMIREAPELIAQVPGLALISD

[5] = target: the molecule itself; assay: SEC + SEC-MALS; apo Atu1419 at 25 uM; Superdex 200 10/300 GL; 50 mM Tris pH 8, 150 mM NaCl
[6] = target: the molecule itself; assay: not stated; oligomeric state of purified Atu1419-H3A; method not given

Molecule: Nc1nc2c(c(=O)[nH]1)N1CN(c3ccc(C(=O)N[C@@H](CCC(=O)O)C(=O)O)cc3)C[C@H]1CN2 [MEF, N5,N10-methylenetetrahydrofolate]
- Kd (Atu1419 [1]): ~20 µM
- Tm (Atu1419 [2]): 63.5 °C

Molecule: AAGCGCCTGAACTGATTGCGCAGGTTCCGGGTCTCGCACTCATCAGCGACTAAGCGGCGGAAATCGCTGCAAATCCAGGGGTGGCGCCTTTTGGCGCCGCCTTTATTTTTGTCGACACCCTCCCTGACGCGGTAATTTTGCGCTTGCAATTTATCAAAGCACAGCGTTTCATGTATACATAGATGCGATTGCCAGGGAGGAGATGACAATGGCAAATTCCAGTCTGACCGAGGTTTTGAAGCAATATCCGAACCCCGTTGAAATGCTC (double strand) [Patu1420]
- binding [3]: binds

Molecule: GGTGGGACTGGTCAAACAACACGGCACCCTCGCGCCATGCGGCCTGCTCGGAACGCCAGTTGCTGAACTCACCGGCGACAACCGGGTATACATACATTCCGATTTTTGAGTTGCGGAGCATTTCAACGGGGTTCGGATATTGCTTCAAAACCTCGGTCAGACTGGAATTTGCCATTGTCATCTCCTCCCT (double strand) [P2-atu1420]
- binding [3]: binds

B1: 10-mer palindrome (dsDNA)
DNA 1: ATGTATACAT
DNA 2: ATGTATACAT
- binding result (Atu1419 [4]): binds

B2: Atu1419 transcriptional regulator (GntR superfamily, VanR group) of Agrobacterium fabrum (natural protein, UniProt A9CJ36 1-244, looked up)
chain: MRQVDAATHGGRAVIELREKILSGELPGGMRLFEVSTAELLDISRTPVREALSRLTEEGLLNRLPGGGFVVRRFGFADVVDAIEVRGVMEGTAARLAAERGVSKVALEEIDATVQQLDLCFGDRVDDVDFDGYAALNRIFHHQLAALCGSEMIRREVERASSLPFASPSAFLPDKANIGAFRRSLRGAQEQHKAIVAAIVAREGARAEAVAREHSRTARTNLEYMIREAPELIAQVPGLALISD
notes: Atu1419, GntR-type transcriptional repressor of the SpG8-1b region, Agrobacterium fabrum C58; theoretical molecular weight about 26 542 Da for a monomer; Co-purifies with one Zn2+ ion per subunit; also called apo Atu1419; wild-type Atu1419; source: E. coli BL21, pET-20b, purified (His-Trap HP, Superdex 200 gel filtration)
- stoichiometry N [5]: 4

B3: Atu1419-H3A mutant (H192A, H141A and H214A) (natural protein)
chain: MRQVDAATHGGRAVIELREKILSGELPGGMRLFEVSTAELLDISRTPVREALSRLTEEGLLNRLPGGGFVVRRFGFADVVDAIEVRGVMEGTAARLAAERGVSKVALEEIDATVQQLDLCFGDRVDDVDFDGYAALNRIFAHQLAALCGSEMIRREVERASSLPFASPSAFLPDKANIGAFRRSLRGAQEQAKAIVAAIVAREGARAEAVAREASRTARTNLEYMIREAPELIAQVPGLALISD
notes: The PDB entries are of the wild-type parent; the mutant could not be crystallised; also called triple point mutant; source: E. coli BL21, synthetic gene (Genscript) in pET-20b, expressed and purified as the wild-type protein
- stoichiometry N [6]: 4
